We go through 1 substance from patent US20020012669A1.

In the experiment the target is CRF2-4/zcytor11 heterodimeric receptor on BaF3/CRF2-4/zcytor11 cells (human) (UniProt Q8N6P7). Kind of experiment: cell-based or functional assay.
CRF2-4/zcytor11 heterodimeric receptor on BaF3/CRF2-4/zcytor11 cells (human), sequence (Q8N6P7 16-574 limits assumed, chain 1 of 2): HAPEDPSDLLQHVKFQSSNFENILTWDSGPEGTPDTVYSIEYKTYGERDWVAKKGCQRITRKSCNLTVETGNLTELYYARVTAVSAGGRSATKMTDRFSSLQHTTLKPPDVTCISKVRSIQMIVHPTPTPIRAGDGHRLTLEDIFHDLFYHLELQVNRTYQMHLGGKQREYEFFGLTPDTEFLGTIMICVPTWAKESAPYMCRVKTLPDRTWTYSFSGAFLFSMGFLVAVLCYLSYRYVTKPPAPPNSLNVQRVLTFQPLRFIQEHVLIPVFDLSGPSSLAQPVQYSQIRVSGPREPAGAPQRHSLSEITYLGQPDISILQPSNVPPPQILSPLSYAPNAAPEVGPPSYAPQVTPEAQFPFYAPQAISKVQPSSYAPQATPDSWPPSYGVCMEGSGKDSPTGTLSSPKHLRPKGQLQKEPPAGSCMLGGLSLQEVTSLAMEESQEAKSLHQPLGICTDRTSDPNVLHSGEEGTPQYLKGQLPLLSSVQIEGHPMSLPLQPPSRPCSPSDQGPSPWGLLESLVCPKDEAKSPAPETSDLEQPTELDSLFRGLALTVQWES
CRF2-4/zcytor11 heterodimeric receptor on BaF3/CRF2-4/zcytor11 cells (human), sequence (Q08334 20-325 limits assumed, chain 2 of 2, further chain): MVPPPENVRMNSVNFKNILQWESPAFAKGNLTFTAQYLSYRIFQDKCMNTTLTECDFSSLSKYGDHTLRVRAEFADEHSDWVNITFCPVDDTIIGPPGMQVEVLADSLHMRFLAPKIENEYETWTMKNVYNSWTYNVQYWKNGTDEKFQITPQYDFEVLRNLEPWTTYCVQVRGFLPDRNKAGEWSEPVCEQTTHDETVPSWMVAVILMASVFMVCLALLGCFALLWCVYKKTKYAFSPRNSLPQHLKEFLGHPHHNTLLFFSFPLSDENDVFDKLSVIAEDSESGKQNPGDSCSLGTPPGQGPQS

The substance “IL-TIF-CEE (human IL-TIF with C-terminal Glu-Glu tag) (from UniProt Q9GZX6 34-179) (ligand)” displayed an Alamar Blue proliferation of BaF3/CRF2-4/zcytor11 cells, IL-TIF-CEE at 0.06 ng/ml (fold induction) of 2 and an Alamar Blue proliferation of BaF3/CRF2-4/zcytor11 cells, IL-TIF-CEE at 50 ng/ml (fold over background) of 15.
